Laboratory results reported in publication PMC7730289.

Assays:
Assay in all cases: flow cytometry
[1] = test system: CD63-negative HEK293T cells; conditions: PBS pH 7.4, 2.0 mM MgCl2, 0.02% Tween 20, 100 ug/mL salmon sperm DNA, ELISA 0.5 h, cells at RT 1 h (Methods) or 37 C 30 min (Results)
CD63 on MDA-MB-231 cells = CD63 on MDA-MB-231 cells (UniProt P08962); conditions: MDA-MB-231 cells; PBS pH 7.4, 2.0 mM MgCl2, 0.02% Tween 20, 100 ug/mL salmon sperm DNA; ELISA 0.5 h; cells at RT 1 h (Methods) or 37 C 30 min (Results)
[2] = target: CD63 overexpressed on HEK293T cells (UniProt P08962); conditions: HEK293T/CD63 cells; PBS pH 7.4, 2.0 mM MgCl2, 0.02% Tween 20, 100 ug/mL salmon sperm DNA; ELISA 0.5 h; cells at RT 1 h (Methods) or 37 C 30 min (Results)
CD63 overexpressed on HEK293T cells, sequence (P08962 whole entry): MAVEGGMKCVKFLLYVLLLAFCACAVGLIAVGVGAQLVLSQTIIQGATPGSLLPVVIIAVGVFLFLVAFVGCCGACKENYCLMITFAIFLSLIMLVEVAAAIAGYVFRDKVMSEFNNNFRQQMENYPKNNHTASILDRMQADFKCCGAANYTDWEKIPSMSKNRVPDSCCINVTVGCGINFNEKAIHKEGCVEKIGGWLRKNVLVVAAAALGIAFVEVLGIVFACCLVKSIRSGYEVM

CD63 on MDA-MB-231 cells, sequence (P08962 2-238): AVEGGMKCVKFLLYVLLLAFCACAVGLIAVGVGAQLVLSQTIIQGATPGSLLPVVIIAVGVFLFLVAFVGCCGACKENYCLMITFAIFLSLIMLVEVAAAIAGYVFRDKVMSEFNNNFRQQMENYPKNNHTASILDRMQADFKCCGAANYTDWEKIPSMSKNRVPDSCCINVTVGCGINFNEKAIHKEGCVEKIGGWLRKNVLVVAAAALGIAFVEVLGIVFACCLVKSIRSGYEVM

With “TAACACGACAGACGTTCGGAGGTCGAACCCTGACAGCGTGGGC [CD63-1 FAM]” as the sequence, how does the Kd [1] read?
The Kd was greater than 1 µM.

And the Kd (CD63 on MDA-MB-231 cells)?
Its Kd is 0.0969 µM.

And the Kd [2]?
Its Kd is 0.113 µM.
